Laboratory results as given in US20050070694A1 (Eli Lilly, published 2005).

Columns and labels:
[1] = biological target: T1, recombinant soluble human TNFSF13b (hTNFSF13b) (human, UniProt Q9Y275 134-285); assay: BIAcore 2000 SPR at 25 C; antibody captured by anti-human IgG Fc, hTNFSF13b as analyte from 50 nM in 2-fold dilutions; Langmuir 1:1 model
T1 construct: Bought from RDI (Research Diagnostics Inc.) and described as amino acids 133-285; The printed soluble portion has 152 residues, one fewer than 133-285 implies; also called huTNFSF13b; BLyS
T1 sequence (Q9Y275 134-285): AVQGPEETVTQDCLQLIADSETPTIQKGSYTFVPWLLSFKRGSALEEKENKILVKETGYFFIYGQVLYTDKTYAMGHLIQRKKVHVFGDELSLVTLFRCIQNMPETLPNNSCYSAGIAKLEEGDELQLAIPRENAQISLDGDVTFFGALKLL

[2] = biological target: T2, murine TNFSF13b (mouse, UniProt Q9WU72 127-309); assay: sandwich ELISA with 4A5-3.1.1-B4 as both capture and detecting mAb
T2 construct: Used as supernatants of CHO cells or 293 transfectants expressing murine TNFSF13b, and as purified protein; also called Mouse TNFSF13b; mouse TNFSF13b parent molecule
T2 sequence (Q9WU72 127-309 limits assumed): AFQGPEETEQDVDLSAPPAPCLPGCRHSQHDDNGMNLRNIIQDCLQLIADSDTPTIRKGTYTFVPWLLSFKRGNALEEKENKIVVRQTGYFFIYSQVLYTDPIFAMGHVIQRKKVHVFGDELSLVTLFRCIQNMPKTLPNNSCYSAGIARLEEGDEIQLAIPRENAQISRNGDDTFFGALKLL

[3] = biological target: T1, recombinant soluble human TNFSF13b …; assay: cell-based or functional assay
[4] = biological target: Chimera E (human TNFSF13b E105K) (human, UniProt Q9Y275 134-285); assay: cell-based or functional assay
Sequence of Chimera E (human TNFSF13b E105K) (Q9Y275 134-285, stated change not applied): as the sequence (Q9Y275 134-285) above

[5] = biological target: Chimera A (human TNFSF13b L139R, D140N) (human, UniProt Q9Y275 134-285); assay: cell-based or functional assay
Sequence of Chimera A (human TNFSF13b L139R, D140N) (Q9Y275 134-285, stated change not applied): as the sequence (Q9Y275 134-285) above

[6] = biological target: Chimera D (human TNFSF13b L53V, K55R, E56Q) (human, UniProt Q9Y275 134-285); assay: cell-based or functional assay
Sequence of Chimera D (human TNFSF13b L53V, K55R, E56Q) (Q9Y275 134-285, stated change not applied): as the sequence (Q9Y275 134-285) above

[7] = biological target: Chimera B (human TNFSF13b K71P, T72I, Y73F) (human, UniProt Q9Y275 134-285); assay: cell-based or functional assay
Sequence of Chimera B (human TNFSF13b K71P, T72I, Y73F) (Q9Y275 134-285, stated change not applied): as the sequence (Q9Y275 134-285) above

B1: human antibody 4A5-3.1.1-B4 (antibody, V domains shown)
VH: QVQLQQWGAGLLKPSETLSLTCAVYGGSFSGYYWSWIRQPPGKGLEWIGEINHSGSTNYNPSLKSRVTISVDTSKNQFSLKLSSVTAADTAVYYCARGYYDILTGYYYYFDYWGQGTLVTVSS
VL: EIVLTQSPATLSLSPGERATLSCRASQSVSRYLAWYQQKPGQAPRLLIYDASNRATGIPARFSGSGSGTDSTLTISSLEPEDFAVYYCQQRSNWPRTFGQGTKVEIKR
notes: Hybridoma-derived human monoclonal antibody from HuMAb mice, with a human kappa light chain; also called 4A5 mAb; 4A5-3.1.11-B4
In the case of B1, the Kd [1] is reported as 0.038 nM, the binding result [2] is reported as “no binding” and the “neutralization of proliferation, 11 ng/ml purified TNFSF13b, 1 ug/ml of 4A5-3.1.1-B4” value (shortened to “neutralization … 1 ug/ml of 4A5-3.1.1-B4”) [3] is reported as 100%. For the same binder, the “neutralization of proliferation, 293 supernatants, 6 ug/ml of 4A5-3.1.1-B4” value (from here on “neutralization … 6 ug/ml of 4A5-3.1.1-B4”) [3] was 100%, the “neutralization … 6 ug/ml of 4A5-3.1.1-B4” value [4] was 100% and the “neutralization … 1 ug/ml of 4A5-3.1.1-B4” value [5] was 100%. For the same binder, the “neutralization … 6 ug/ml of 4A5-3.1.1-B4” value [5] was 100%, the “neutralization … 6 ug/ml of 4A5-3.1.1-B4” value [6] was 100% and the “neutralization … 1 ug/ml of 4A5-3.1.1-B4” value [7] was 88%. For the same binder, the “neutralization … 6 ug/ml of 4A5-3.1.1-B4” value [7] was 100%.
